Assay results as given in patent US20220089772A1 (published 2022).

Tests used:
[1] = target: T1, Human glycopeptide (biotinylated) (biotinylated; glycosylated (glycan and sites not stated)); assay: SPR; avid; apparent KD, FIG. 19A
T1 peptide: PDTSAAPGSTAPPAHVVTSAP

[2] = target: T2, Cynomolgus glycopeptide (biotinylated) (biotinylated; glycosylated (glycan and sites not stated)); assay: SPR; avid; apparent KD, FIG. 19B
T2 peptide: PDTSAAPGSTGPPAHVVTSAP

Kd [1]: 253 nM | Kd [2]: 56 nM
B1: monoclonal antibody GO2 (5F7) (antibody, V domains shown)
VH: QVQLQQSDAELVKPGASVKISCKASGYTFTDHAIHWVKQRPEQGLEWIGYFSPGNDDIHYNEKFEGKATLTADKSSSTAYMQLNSLTSEDSAVYFCKRSYDKDFDCWGQGTTLTVSS
VL: DIVMSQSPSSLGVSVGEKVTMSCKSSQSLLYSTNQKNYLAWYQQKPGQSPKLLIYWVSNRKSGVPDRFTGSGSGTDFTLTISSVKAEDLAVYYCQQYYRYPLTFGAGTKLELK
